Results published in paper PMC3078926, “Epistatic Roles for Pseudomonas aeruginosa MutS and DinB (DNA Pol IV) in Coping with Reactive Oxygen Species-Induced DNA Damage” (PLoS ONE, 2011).

Assays:
purified protein [1] = substrate: Nc1ccn([C@H]2C[C@H](O)[C@@H](COP(=O)(O)OP(=O)(O)OP(=O)(O)O)O2)c(=O)n1; experiment: purified protein; format: biochemical, Pseudomonas aeruginosa; conditions: opposite undamaged template dG, 13/20-mer primer/template DNA 100 nM, 200 nM DinB, 10 mM MgCl2, pH 7.5, 25 °C
purified protein [2] = substrate: Nc1ncnc2c1ncn2[C@H]1C[C@H](O)[C@@H](COP(=O)(O)OP(=O)(O)OP(=O)(O)O)O1; experiment: purified protein; format: biochemical, Pseudomonas aeruginosa; conditions: opposite template 8-oxo-dG (lesion), 13/20 8-oxo-dG-mer DNA 100 nM, 200 nM DinB, 10 mM MgCl2, pH 7.5, 25 °C

B1: P. aeruginosa DinB (DNA Pol IV) (Pseudomonas aeruginosa PAO1) (protein)
chain: MRKIIHIDCDCFYAALEMRDDPSLRGKALAVGGSPDKRGVVATCSYEARAYGVRSAMAMRTALKLCPDLLVVRPRFDVYRAVSKQIHAIFRDYTDLIEPLSLDEAYLDVSASPHFAGSATRIAQDIRRRVAEELHITVSAGVAPNKFLAKIASDWRKPDGLFVITPEQVDGFVAELPVAKLHGVGKVTAERLARMGIRTCADLRQGSKLSLVREFGSFGERLWGLAHGIDERPVEVDSRRQSVSVECTFDRDLPDLAACLEELPTLLEELDGRLQRLDGSYRPDKPFVKLKFHDFTQTTVEQSGAGRDLESYRQLLGQAFARGNRPVRLIGVGVRLLDLQGAHEQLRLF
notes: C-terminally hexahistidine-tagged, recombinant, purified as described earlier
**Q.** For B1, which Km (purified protein [1]) is on record?
**A.** 5.4 ± 2.3 µM

**Q.** What about the kcat (purified protein [1]) of the same protein?
**A.** 0.12 ± 0.01 s⁻¹

**Q.** What about the kcat/Km (purified protein [1]) of the same protein?
**A.** 22000 M⁻¹ s⁻¹

**Q.** What about the Km (purified protein [2]) of the same protein?
**A.** 15 ± 5.0 µM

**Q.** And the kcat (purified protein [2])?
**A.** 0.066 ± 0.006 s⁻¹

**Q.** And the kcat/Km (purified protein [2])?
**A.** 4000 M⁻¹ s⁻¹
